In one assay the target is human serum proteins. In words: cell-based or functional assay.
A further assay deals with D35 (D39(A13K/A16K)). The assay can be described thus: RP-HPLC temperature profiling 5-77 C, pH 2, self-association (dimerization/oligomerization) relative to random coil control RC.
In the next assay the target is D33 (D37(A13K/A16K)). The assay is described as above.
The target of another assay is D34 (D38(A13K/A16K)). Described as above.

Non-standard residues stand in square brackets, D forms with d. No end group written: not given here.

B1: D35 (D39(A13K/A16K)) (peptide)
peptide: [dA][dL][dK][dS][dL][dL][dA][dT][dL][dS][dK][dA][dK][dK][dK][dK][dL][dK][dT][dL][dL][dA][dA][dL][dS][dK]-NH2
modifications: N-terminus assumed
SMILES: CC(C)C[C@@H](NC(=O)[C@@H](C)N)C(=O)N[C@H](CCCCN)C(=O)N[C@H](CO)C(=O)N[C@H](CC(C)C)C(=O)N[C@H](CC(C)C)C(=O)N[C@H](C)C(=O)N[C@@H](C(=O)N[C@H](CC(C)C)C(=O)N[C@H](CO)C(=O)N[C@H](CCCCN)C(=O)N[C@H](C)C(=O)N[C@H](CCCCN)C(=O)N[C@H](CCCCN)C(=O)N[C@H](CCCCN)C(=O)N[C@H](CCCCN)C(=O)N[C@H](CC(C)C)C(=O)N[C@H](CCCCN)C(=O)N[C@@H](C(=O)N[C@H](CC(C)C)C(=O)N[C@H](CC(C)C)C(=O)N[C@H](C)C(=O)N[C@H](C)C(=O)N[C@H](CC(C)C)C(=O)N[C@H](CO)C(=O)N[C@H](CCCCN)C(N)=O)[C@H](C)O)[C@H](C)O
In the assay with human serum proteins, B1 showed an MIC against A. baumannii strain 649 in 25% human serum (no serum: 0.4) of 1.4 µM. Besides, the PA (self-association parameter) in the assay with D35 (D39(A13K/A16K)) is 5.5 min.

B2: D33 (D37(A13K/A16K)) (peptide)
peptide: [dA][dL][dK][dS][dL][dL][dK][dT][dL][dS][dK][dA][dK][dA][dA][dK][dL][dK][dT][dL][dL][dK][dA][dL][dS][dK]-NH2
modifications: N-terminus assumed
SMILES: CC(C)C[C@@H](NC(=O)[C@@H](C)N)C(=O)N[C@H](CCCCN)C(=O)N[C@H](CO)C(=O)N[C@H](CC(C)C)C(=O)N[C@H](CC(C)C)C(=O)N[C@H](CCCCN)C(=O)N[C@@H](C(=O)N[C@H](CC(C)C)C(=O)N[C@H](CO)C(=O)N[C@H](CCCCN)C(=O)N[C@H](C)C(=O)N[C@H](CCCCN)C(=O)N[C@H](C)C(=O)N[C@H](C)C(=O)N[C@H](CCCCN)C(=O)N[C@H](CC(C)C)C(=O)N[C@H](CCCCN)C(=O)N[C@@H](C(=O)N[C@H](CC(C)C)C(=O)N[C@H](CC(C)C)C(=O)N[C@H](CCCCN)C(=O)N[C@H](C)C(=O)N[C@H](CC(C)C)C(=O)N[C@H](CO)C(=O)N[C@H](CCCCN)C(N)=O)[C@H](C)O)[C@H](C)O
B2 returned an MIC against A. baumannii strain 649 in 25% human serum (no serum: 0.1) in the assay with human serum proteins of 0.7 µM. In the assay with D33 (D37(A13K/A16K)), the PA (self-association parameter) was determined as 5.3 min.

B3: D34 (D38(A13K/A16K)) (peptide)
peptide: [dA][dL][dK][dS][dL][dL][dK][dT][dL][dS][dA][dA][dK][dK][dK][dK][dL][dA][dT][dL][dL][dK][dA][dL][dS][dK]-NH2
modifications: N-terminus assumed
SMILES: CC(C)C[C@@H](NC(=O)[C@@H](C)N)C(=O)N[C@H](CCCCN)C(=O)N[C@H](CO)C(=O)N[C@H](CC(C)C)C(=O)N[C@H](CC(C)C)C(=O)N[C@H](CCCCN)C(=O)N[C@@H](C(=O)N[C@H](CC(C)C)C(=O)N[C@H](CO)C(=O)N[C@H](C)C(=O)N[C@H](C)C(=O)N[C@H](CCCCN)C(=O)N[C@H](CCCCN)C(=O)N[C@H](CCCCN)C(=O)N[C@H](CCCCN)C(=O)N[C@H](CC(C)C)C(=O)N[C@H](C)C(=O)N[C@@H](C(=O)N[C@H](CC(C)C)C(=O)N[C@H](CC(C)C)C(=O)N[C@H](CCCCN)C(=O)N[C@H](C)C(=O)N[C@H](CC(C)C)C(=O)N[C@H](CO)C(=O)N[C@H](CCCCN)C(N)=O)[C@H](C)O)[C@H](C)O
The molecule B3 gave an MIC against A. baumannii strain 649 in 25% human serum (no serum: 0.2) with human serum proteins of 1.4 µM. Also, the PA (self-association parameter) with D34 (D38(A13K/A16K)) came to 5.7 min.

(Values after patent US20200129634A1.)
